Measured values reported in patent publication US20240216513A1, “FATTY ACID-BIFUNCTIONAL DEGRADER CONJUGATES AND THEIR METHODS OF USE” (Novartis AG, priority 2021, published 2024).

What was measured:
BTK = molecular target: T1, BTK (Homo sapiens, UniProt Q06187); assay: PK/PD in TMD8 tumor-bearing mice: BTK levels in tumor by Meso Scale Discovery; format: in vivo, mouse; conditions: for Duration of BTK degradation in mouse ≥90%: I.v.
T1 construct: endogenous in cells; host or cells: TMD8 tumour xenografts in SCID/BEIGE mice
T1 sequence (Q06187 whole entry): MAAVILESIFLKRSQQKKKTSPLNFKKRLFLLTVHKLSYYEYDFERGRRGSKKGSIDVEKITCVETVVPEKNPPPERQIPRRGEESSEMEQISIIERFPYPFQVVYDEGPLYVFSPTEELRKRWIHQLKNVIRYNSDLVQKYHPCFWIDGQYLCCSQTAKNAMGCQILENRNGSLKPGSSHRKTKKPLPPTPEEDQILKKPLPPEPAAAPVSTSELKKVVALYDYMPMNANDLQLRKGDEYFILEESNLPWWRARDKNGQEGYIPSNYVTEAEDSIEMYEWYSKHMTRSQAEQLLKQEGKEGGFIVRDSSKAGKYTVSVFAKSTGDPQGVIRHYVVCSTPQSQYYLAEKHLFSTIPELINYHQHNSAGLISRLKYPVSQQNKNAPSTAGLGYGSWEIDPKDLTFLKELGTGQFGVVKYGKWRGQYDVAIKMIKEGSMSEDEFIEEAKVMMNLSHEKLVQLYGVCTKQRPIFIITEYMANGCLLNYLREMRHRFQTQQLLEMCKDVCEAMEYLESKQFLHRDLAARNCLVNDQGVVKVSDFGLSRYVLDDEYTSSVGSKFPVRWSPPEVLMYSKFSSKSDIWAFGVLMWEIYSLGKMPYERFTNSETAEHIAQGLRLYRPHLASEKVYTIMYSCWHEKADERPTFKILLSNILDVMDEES
Method: (§1) All animal experiments were performed according to procedures covered by permit number BS-1974, BS-1975 and BS-2904 issued by the Kantonales Veterinäramt Basel-Stadt and strictly adhered to the Eidgenössisches Tierschutzgesetz and the Eidgenössische Tierschutzverordnung. Female Sprague Dawley rat were obtained from Charles Rivers (Germany), female Balb/c mice from Charles Rivers (Italy) and female SCID/BEIGE (C.B-Igh-1b/GbmsTac-Prkdcscid-Lystbg N7) mice from Taconic. All the animals were housed in a pathogen-controlled environment with access to food and water ad libitum and they were identified with transponders.
(§2) Subcutaneous TMD8 tumors were induced by injecting tumor cells expanded in vitro in the right flank of SCID/BEIGE mice. As soon as the injection was finished, antagonization (naloxone, flumazenil and atipamezole injected s.c.) was injected and mice are put on a warming pad for recovery and carefully checked during that time.
(§3) For PK experiments, non-tumor bearing mice or rats were treated once (10 mL/kg) with a compound either i.v. or s.c. Serial blood samplings from the tail vein (5-20 μl) were collected during the course of the experiment. For PK/PD experiments in tumor-bearing mice, compound was administered once (10 mL/kg) either i.v. or s.c. Animals were randomized into groups of n=3 and tissue samples were collected at several time points. At the times indicated, animals were anaesthetized by exposure to 2-3% v/v isoflurane in medical oxygen. They were sacrificed without recovering from anesthetic after blood sampling into commercially prepared EDTA coated tubes (Milian, cat #TOM-14C) in order to extract plasma. The tissues were excised, weighted and rapidly frozen in liquid nitrogen. Later, tumors were cryogenic dry pulverized with the CryoPrep™ system (model CP-02, Covaris). For efficacy experiments in ectopic tumor-bearing mice, animals were randomized into groups of n=6 for a mean tumor size of 100 mm^3 and compound was administered either i.v. q3w or s.c. q2w. When implanted in brain, animals were randomized into groups of n=4 for a mean bioluminescence of 1.0-2.0E+06 [p/s]/[ρW/cm^2] and compound was administered i.v. qw. Tumor response were reported with the measures of tumor volumes or bioluminescence from the treatment start. Concentrations of compound in blood and tissues were determined simultaneously by UPLC/MS-MS. BTK and IL-10 levels in tumor were determined by Meso Scale Discovery (MSD).

[1] = In vivo pharmacokinetic study in mice (i.v. or s.c.), FAC and payload in blood; set-up: species or system mouse; conditions: male
Method: (§4) Pharmacokinetic studies were conducted in male C57/B16 mice; male Sprague-Dawley rats; male Beagle dogs and male Cynomolgus monkeys. 3 animals per group were used for each study performed. All studies were performed in accordance with local animal welfare regulations.
(§5) […] Serial 30 µL blood samples were collected via venipuncture of the tail vein in mouse, and via the cannulated jugular vein in rats at defined timepoints to 216 hours (into EDTA coated tubes).
(§6) Each blood sample was precipitated with acetonitrile containing internal standard; samples were mixed and centrifuged (20 minutes 4000 RPM at 4° C.). Supernatant was transferred to a microwell plate and evaporated under nitrogen at 60° C. Residue was resuspended in acetonitrile/water (7:3 v/v); plate sealed and transferred to an ultrasonic bath for 3 minutes, prior to analysis. Quantification was performed by LC-MS/MS (SciexAP16500 Q-trap, Shimadzu Nexera X2) using a Phenomenex Polar RP analytical column (2.5 μm particle size; 50×2 mm). The mobile phase consisted of solvent A (0.1% formic acid in water) and solvent B (0.1% formic acid in acetonitrile). The fatty acid conjugate and API were detected using multiple reaction monitoring.
(§7) Data analysis and calculation of non-compartmental pharmacokinetic parameters was
(§8) performed using an in-house analysis. Following intravenous administration whole blood clearance was calculated by the dose administered divided by AUC0-inf. Volume of distribution at steady state was calculated as MRT*CL, where MRT is the mean residence time, calculated by AUMC0-inf/AUC0-inf. The half-life (t1/2) of the terminal elimination phase was calculated by 0.693/λ. For both intravenous and subcutaneous administration, the systemic exposures were determined by calculating the area under the blood concentration time curve (AUC) from time zero to the last observed quantifiable concentration (AUClast) by using the linear trapezoidal method and normalised to dose. Extrapolated AUC (AUC0-inf) is calculated by addition of AUClast and AUCtlast-inf; where AUCtlast-inf is calculated based on Clast/λ. The slope of the terminal elimination phase was estimated by linear regression of the terminal data points (minimum 3 points) from a natural log concentration versus time plot of the data. Bioavailability was calculated as the dose normalized ratio of […] AUCinf to intravenous AUCinf (100*[SC AUCinf/SC dose]/[IV AUCinf/IV dose]). Following subcutaneous administration Cmax is calculated as the average maximum observed peak concentration and Tmax is the time associated with the determined Cmax.
as §3, with “Concentrations of compound in blood and tissues were determined simultaneously by UPLC/MS-MS. BTK and IL-10 levels in tumor were determined by Meso Scale Discovery (MSD).” left out

TMD8 tumors = assay: Efficacy in ectopic (subcutaneous) TMD8 tumor-bearing SCID/BEIGE mice, tumor volume; format: in vivo, mouse; conditions: I.v.
Method: as §1, §2, §3

[2] = In vivo pharmacokinetic study in rats (i.v. or s.c.), FAC and payload in blood; set-up: species or system rat; conditions: male, Sprague-Dawley, rat, in vivo, sc, 40 umol/kg
Method: as §4, §5, §6, §7, §8
as §3, with “Concentrations of compound in blood and tissues were determined simultaneously by UPLC/MS-MS. BTK and IL-10 levels in tumor were determined by Meso Scale Discovery (MSD).” left out

[3] = In vivo pharmacokinetic study in Beagle dogs (i.v. or s.c.), FAC and payload in blood; set-up: species or system dog
Method: as §4
(§9) Between 1 and 10 µM/kg FAC was administered either intravenously or subcutaneously as a solution in 10 mM PBS with NaOH (dose volume 0.4 mL/kg in dog and monkey s.c. and 0.2 mL/kg i.v. in monkey). Serial 100 µL blood samples were collected via venipuncture of the cephalic vein at defined timepoints to 336 hours (into EDTA coated tubes).
as §6, §7, §8

[4] = In vivo pharmacokinetic study in Cynomolgus monkeys (i.v. or s.c.), FAC and payload in blood; set-up: species or system cynomolgus monkey
Method: as §4, §9, §6, §7, §8

[5] = C57/B16, mouse, in vivo, sc, 40 umol/kg

| Duration of BTK degradation in mouse ≥90% (BTK; 40 umol/kg) [days] | Duration of BTK degradation in mouse ≥90% (BTK; 20 mg/kg (unconjugated N)) [days] | Duration of BTK degradation in mouse ≥90% (days) (BTK; s.c., 10 mg/kg (unconjugated N)) | AUC ([1]; C57/B16, whole blood, iv, Mouse, unconj. BTK Degrader dosed itself (i.v. per row label), API dose 10 umol/kg, read-out: Payload (BTK Degrader) AUC) [µM·h] | Cmax ([1]; C57/B16, whole blood, iv, Mouse, unconj. BTK Degrader dosed itself (i.v. per row label), API dose 10 umol/kg, read-out: Payload (BTK Degrader) Cmax) [µM] | SMILES | AUC [1, 5] [µM·h] | Cmax [1, 5] [µM] | Dosing to achieve sustained ~90% regression (TMD8 tumors) | Cmax [2] [µM] | AUC ([2]; Lipophilic Acid Conjugate AUC) [µM·h] | Fatty Acid Conjugate C0-uM d.n. Dog ([3]; analyte conjugate, d.n., Conj. i.v. dose 10 umol/kg) [µM] | AUC ([3]; male, Beagle, whole blood, sc, Dog, Conj. s.c. dose 10 umol/kg, read-out: Lipophilic Acid Conjugate AUC) [µM·h] | Cmax ([3]; male, Beagle, whole blood, sc, Dog, Conj. s.c. dose 10 umol/kg, read-out: Lipophilic Acid Conjugate Cmax) [µM] | Fatty Acid Conjugate C0-uM d.n. Cyno ([4]; analyte conjugate, d.n., Conj. i.v. dose 1 umol/kg) [µM] | AUC ([4]; male, cynomolgus monkey, whole blood, sc, Cyno, Conj. s.c. dose 1 umol/kg, read-out: Lipophilic Acid Conjugate AUC) [µM·h] | Cmax ([4]; male, cynomolgus monkey, whole blood, sc, Cyno, Conj. s.c. dose 1 umol/kg, read-out: Lipophilic Acid Conjugate Cmax) [µM] |
| --- | --- | --- | --- | --- | --- | --- | --- | --- | --- | --- | --- | --- | --- | --- | --- | --- |
| 14 | – | – | – | – | CCCCCCCCCCC[C@](CCCCCCCCCCC(=O)O)(C(=O)O)C(=O)NCCOCCOCCOCCOCCOCCOCCOCCOCCOCCOCCOCCOCCC(=O)NCC(=O)OC(C)(C)c1ccc(C(=O)Nc2cc(F)cc(-c3ncnc4[nH]c(-c5ccc(CN6CCC(OC7CCN(CCn8cccc(CN9CCC(=O)NC9=O)c8=O)CC7)CC6)cc5)cc34)c2C)c(F)c1 (single isomer, unassigned) [Compound B3] | 3850 | 68 | 20 umol/kg q3w | – | – | – | – | – | – | – | – |
| 10 | – | – | – | – | CCCCCCCCCCCC(CCCCCCCCCCC(=O)O)(C(=O)O)C(=O)NCCOCCOCCOCCOCCOCCOCCOCCOCCOCCOCCOCCOCCC(=O)NCC(=O)OC(C)(C)c1ccc(C(=O)Nc2cc(F)cc(-c3ncnc4[nH]c(-c5ccc(CN6CCC(OC7CCN(CCn8cccc(CN9CCC(=O)NC9=O)c8=O)CC7)CC6)cc5)cc34)c2C)c(F)c1 (stereo not shown) [Compound B1, 2-((44-(4-((3-(6-(4-((4-((1-(2-(3-((2,4-Dioxotetrahydropyrimidin-1(2H)-yl)methyl)-2-oxopyridin-1(2H)-yl)ethyl)piperidin-4-yl)oxy)piperidin-1-yl)methyl)phenyl)-7H-pyrrolo[2,3-d]pyrimidin-4-yl)-5-fluoro-2-methylphenyl)carbamoyl)-3-fluorophenyl)-44-methyl-39,42-dioxo-3,6,9,12,15,18,21,24,27,30,33,36,43-tridecaoxa-40-azapentatetracontyl)carbamoyl)-2-undecyltridecanedioic acid] | 3860 | 71 | 40 umol/kg q3w | 11 | 667 | 3.3 | 304 | 37.5 | 9.9 | 26.1 | 3.8 |
| 10 | – | – | – | – | CCCCCCCCCCC[C@@](CCCCCCCCCCC(=O)O)(C(=O)O)C(=O)NCCOCCOCCOCCOCCOCCOCCOCCOCCOCCOCCOCCOCCC(=O)NCC(=O)OC(C)(C)c1ccc(C(=O)Nc2cc(F)cc(-c3ncnc4[nH]c(-c5ccc(CN6CCC(OC7CCN(CCn8cccc(CN9CCC(=O)NC9=O)c8=O)CC7)CC6)cc5)cc34)c2C)c(F)c1 (single isomer, unassigned) [Compound B2] | 1860 | 60 | 60 umol/kg q3w | – | – | – | – | – | – | – | – |
| – | 4 | 1(10 mg/kg) days | 9.3 | 1.6 | Cc1c(NC(=O)c2ccc(C(C)(C)O)cc2F)cc(F)cc1-c1ncnc2[nH]c(-c3ccc(CN4CCC(OC5CCN(CCn6cccc(CN7CCC(=O)NC7=O)c6=O)CC5)CC4)cc3)cc12 [Compound N, N-(3-(6-(4-((4-((1-(2-(3-((2,4-Dioxotetrahydropyrimidin-1(2H)-yl)methyl)-2-oxopyridin-1(2H)-yl)ethyl)piperidin-4-yl)oxy)piperidin-1-yl)methyl)phenyl)-7H-pyrrolo[2,3-d]pyrimidin-4-yl)-5-fluoro-2-methylphenyl)-2-fluoro-4-(2-hydroxypropan-2-yl)benzamide] | – | – | 20 mg/kg 2qw | – | – | – | – | – | – | – | – |
